Experimental findings from patent publication US20240307564A1 (SUZHOU TRANSCENTA THERAPEUTICS, published 2024) are described below.

Assay [1] deals with human CLDN18.2 (human). The assay can be described thus: cell-based or functional assay.
Assay [2] concerns the target T1, human CLDN18.2 (human).
T1 construct: On HEK293-CLDN18.2 and MKN45-CLDN18.2 transfected cells and on the gastric cell lines NUGC4 and KATOIII (endogenous); also called Claudin18.2; claudin 18 splice variant 2
The assay can be described thus: KinExA on gastric cell lines. In general terms: Kinetic exclusion samples the free partner from a solution-phase mixture.

B1: 18B10-HaLa (antibody, human IgG1, kappa, V domains shown)
VH: QVQLVQSGAEVKKPGASVKVSCKASGYTFTGYNMNWVRQAPGQGLEWMGNIDPYYGGTSYNQKFKGRVTMTIDKSTSTVYMELSSLRSEDTAVYYCARMYHGNAFDYWGQGTTVTVSS
VL: DIVMTQSPDSLAVSLGERATINCKSSQSLLNSGNLKNYLTWYQQKPGQPPKLLIYWASTRKSGVPDRFSGSGSGTDFTLTISSLQAEDVAVYYCQNDYSYPLTFGGGTKVEIKR
notes: humanized; variable regions fused with human IgG1 and human kappa constant regions; also called humanized 18B10 HaLa
Regarding B1, in the assay with human CLDN18.2 [1], the “ADCC EC50 on NUGC4 cells” value was approximately 0.59 µg/mL, the “ADCC reporter EC50” value stood at 0.05 µg/mL and the CDC activity was more than 20 fold. Further, the “fold higher affinity than IMAB362” value in the assay with human CLDN18.2 [2] is more than 8 fold.
